Assay results reported in patent US7732133B2, “Screening methods for biologically active ligands” (Chugai Seiyaku Kabushiki Kaisha, priority 2000, dated 2010).

Target: T1, chimeric CNTF receptor (human CNTF receptor expressed in chimeric LIF receptor cell line LIG) in Ba/F3 cell line CNG (Homo sapiens, UniProt P26992+P40189+P42702)
T1 construct: from the 1st to the 372nd amino acid residues; expressed in transfected cells; host or cells: Ba/F3-derived cell line LIG transfected with pCV-CNTFR, clone CNG#203 = CNG
T1 sequence (P26992 23-372, change not shown): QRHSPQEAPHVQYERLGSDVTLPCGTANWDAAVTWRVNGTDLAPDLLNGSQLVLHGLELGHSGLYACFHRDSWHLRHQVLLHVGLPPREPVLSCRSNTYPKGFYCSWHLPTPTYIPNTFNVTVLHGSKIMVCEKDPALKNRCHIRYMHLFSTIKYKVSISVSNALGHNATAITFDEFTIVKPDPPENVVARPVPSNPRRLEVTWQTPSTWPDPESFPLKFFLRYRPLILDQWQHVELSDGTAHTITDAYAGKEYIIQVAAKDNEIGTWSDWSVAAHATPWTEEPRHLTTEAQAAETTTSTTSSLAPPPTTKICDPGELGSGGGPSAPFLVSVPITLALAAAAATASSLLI
T1 sequence (P42702 45-833, change not shown): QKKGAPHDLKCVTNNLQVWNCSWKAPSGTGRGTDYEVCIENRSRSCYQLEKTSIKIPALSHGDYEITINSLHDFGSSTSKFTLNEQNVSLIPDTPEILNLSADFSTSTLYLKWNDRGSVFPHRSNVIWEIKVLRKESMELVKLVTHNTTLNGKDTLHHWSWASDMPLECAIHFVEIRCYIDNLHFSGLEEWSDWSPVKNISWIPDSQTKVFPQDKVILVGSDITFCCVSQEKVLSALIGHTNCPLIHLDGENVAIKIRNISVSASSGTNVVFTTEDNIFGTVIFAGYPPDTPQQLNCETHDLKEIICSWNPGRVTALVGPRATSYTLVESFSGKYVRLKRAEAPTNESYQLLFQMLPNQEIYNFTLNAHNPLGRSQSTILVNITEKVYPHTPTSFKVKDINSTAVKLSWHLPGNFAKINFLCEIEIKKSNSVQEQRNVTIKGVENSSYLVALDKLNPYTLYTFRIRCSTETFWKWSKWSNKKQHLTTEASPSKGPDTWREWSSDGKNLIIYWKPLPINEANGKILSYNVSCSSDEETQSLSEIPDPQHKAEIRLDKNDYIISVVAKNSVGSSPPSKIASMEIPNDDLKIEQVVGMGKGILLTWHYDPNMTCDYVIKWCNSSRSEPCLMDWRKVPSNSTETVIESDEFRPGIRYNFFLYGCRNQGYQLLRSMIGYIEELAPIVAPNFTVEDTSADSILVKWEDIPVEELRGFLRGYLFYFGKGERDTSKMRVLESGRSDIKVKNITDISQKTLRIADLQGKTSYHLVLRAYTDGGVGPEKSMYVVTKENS
T1 sequence (P40189 23-619, change not shown): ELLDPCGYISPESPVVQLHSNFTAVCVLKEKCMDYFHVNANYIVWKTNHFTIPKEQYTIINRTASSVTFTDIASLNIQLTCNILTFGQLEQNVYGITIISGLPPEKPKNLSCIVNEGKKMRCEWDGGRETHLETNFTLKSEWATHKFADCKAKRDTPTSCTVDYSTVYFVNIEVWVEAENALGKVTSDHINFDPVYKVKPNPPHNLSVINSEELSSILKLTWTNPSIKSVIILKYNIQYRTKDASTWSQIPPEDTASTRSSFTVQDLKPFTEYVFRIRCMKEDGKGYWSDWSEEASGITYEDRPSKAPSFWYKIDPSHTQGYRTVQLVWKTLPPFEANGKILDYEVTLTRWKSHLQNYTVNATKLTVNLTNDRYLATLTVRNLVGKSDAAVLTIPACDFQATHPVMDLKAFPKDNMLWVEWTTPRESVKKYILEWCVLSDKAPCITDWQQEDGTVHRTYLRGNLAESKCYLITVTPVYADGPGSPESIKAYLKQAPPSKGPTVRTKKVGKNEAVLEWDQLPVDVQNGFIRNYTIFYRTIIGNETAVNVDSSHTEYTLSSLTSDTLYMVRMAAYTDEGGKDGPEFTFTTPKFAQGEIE
T1 sequence (P40223 627-837 partner limits assumed): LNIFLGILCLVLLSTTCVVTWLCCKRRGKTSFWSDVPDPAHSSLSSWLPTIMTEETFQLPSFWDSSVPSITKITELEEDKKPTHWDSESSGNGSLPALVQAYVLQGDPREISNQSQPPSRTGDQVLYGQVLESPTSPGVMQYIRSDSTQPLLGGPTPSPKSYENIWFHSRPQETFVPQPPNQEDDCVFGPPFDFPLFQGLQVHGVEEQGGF
Test: Growth response of chimeric CNTF receptor-expressing Ba/F3 cell line CNG (WST-8)
Format: cell-based
Conditions: 72 hours culture, WST-8 absorbance
Source text: Human CNTF receptor (from the 1st to the 372nd amino acid residues; Davis, S. et al. (1991) Science, 253, 59-63) cDNA was cloned downstream of the HEF1α promoter of a mammalian expression vector, pCV, to construct human CNTF receptor (CNTFR) expression vector, pCV-CNTFR. pCV-CNTFR was linearized with Pvu I (Takara Shuzo), extracted with phenol and chloroform, and purified by ethanol precipitation.
The linearized expression gene vector was introduced into the chimeric LIF receptor-expressing cell line LIG (see section 1-13) using an electroporation apparatus (Gene Pulser: Bio Rad). The LIG cells were washed twice with Dulbecco's PBS (hereinafter referred to as PBS), and then were suspended in PBS to give a cell density of about 1×10^7 cells/mL. […]
The cells were washed twice with Media A, and were suspended in Media A to give a cell density of 5×10^4 cells/mL. […] After the culture, 10 μL/well WST-8 reagent (Cell Count Reagent SF; Nacalai Tesque) was added, and pre-reaction absorbance at a measurement wavelength of 450 nm and a control wavelength of 655 nm was measured using microplate reader (Model 3550, Bio Rad). The plate was incubated for two hours in a CO2 incubator (CO2 concentration, 5%), and post-reaction absorbance was measured as above. […]

B1: human CNTF: human ciliary neurotrophic factor (Genzyme) (protein, UniProt P26441 1-200, looked up)
Ciliary neurotrophic factor: MAFTEHSPLTPHRRDLCSRSIWLARKIRSDLTALTESYVKHQGLNKNINLDSADGMPVASTDQWSELTEAERLQENLQAYRTFHVLLARLLEDQQVHFTPTEGDFHQAIHTLLLQVAAFAYQIEELMILLEYKIPRNEADGMPINVGDGGLFEKKLWGLKVLQELSQWTVRSIHDLRFISSHQTGIPARGSHYIANNKKM
concentration at which an evident growth reaction was observed: ≥ 0.3 ng/mL
